# B1: PKCδ-DN: loss of function PKCδ-V5 epitope tagged mutant protein, lysine 376 to arginine, kinase inactive (protein, UniProt P28867 1-674, looked up, variant K376R)
# chain: MAPFLRISFNSYELGSLQVEDEASQPFCAVKMKEALSTERGKTLVQKKPTMYPEWKTTFDAHIYEGRVIQIVLMRAAEDPVSEVTVGVSVLAERCKKNNGKAEFWLDLQPQAKVLMCVQYFLEDGDCKQSMRSEEEAKFPTMNRRGAIKQAKIHYIKNHEFIATFFGQPTFCSVCKEFVWGLNKQGYKCRQCNAAIHKKCIDKIIGRCTGTATNSRDTIFQKERFNIDMPHRFKVYNYMSPTFCDHCGSLLWGLVKQGLKCEDCGMNVHHKCREKVANLCGINQKLLAEALNQVTQRSSRKLDTTESVGIYQGFEKKPEVSGSDILDNNGTYGKIWEGSTRCTLENFTFQKVLGKGSFGKVLLAELKGKDKYFAIRCLKKDVVLIDDDVECTMVEKRVLALAWESPFLTHLICTFQTKDHLFFVMEFLNGGDLMFHIQDKGRFELYRATFYAAEIICGLQFLHSKGIIYRDLKLDNVMLDRDGHIKIADFGMCKENIFGEGRASTFCGTPDYIAPEILQGLKYSFSVDWWSFGVLLYEMLIGQSPFHGDDEDELFESIRVDTPHYPRWITKESKDIMEKLFERDPDKRLGVTGNIRIHPFFKTINWSLLEKRKVEPPFKPKVKSPSDYSNFDPEFLNEKPQLSFSDKNLIDSMDQEAFHGFSFVNPKFEQFLDI
# modifications: full-length V5 epitope tag
# How the values were obtained:
# [1] = test system: tyrosine hydroxylase (TH); test: TH-ser40 phosphorylation in primary mesencephalic neurons (immunofluorescence); type: cell-based, mouse; conditions: primary neurons, 24 hr post-transfection
# Experimental: PC12 and N27 cells were cultured as described earlier (Anantharam et al., 2002; Kaul et al., 2003). Briefly, cells were grown in RPMI 1640 medium containing 10% fetal bovine serum, 2 mM L-glutamine, 50 units of penicillin, and 50 μg/ml streptomycin. Cells were maintained in a humidified atmosphere of 5% CO2 at 37° C. N27 cells were differentiated with 2 mM dibutyryl cAMP for 3-5 days and then used for experiments described below. Primary mesencephalic neuronal cultures were prepared from the ventral mesencephalon of gestational 16-18-day-old mice embryos as described previously (Yang et al., 2004). Mesencephalic tissues were dissected and maintained in ice-cold Ca^2+-free HESS and then dissociated in HBSS solution containing trypsin-EDTA (0.25%) for 20 min at 37° C. The dissociated cells were then plated at equal density (0.5×10^6 cells) in 30-mm-diameter tissue culture wells precoated with poly-L-lysine (1 mg/ml). […]
# Plasmid pPKCδ^K376R-V5 encodes the loss of function PKCδ-V5 epitope tagged mutant protein; K376R refers to the mutation of the lysine residue at position 376 to arginine in the catalytic site resulting in inactivation of the kinase. […] Transfection efficiency was >75% as determined by immunostaining of V5-expression. […]
# N27 cells = test: Cellular DA and DOPAC levels in N27 cells (HPLC-EC); type: cell-based, rat; conditions: N27 cells; rottlerin vs vehicle, PKCδ-DN vs LacZ
# Experimental: (§1) PC12 cells, differentiated N27 dopaminergic cells and primary mesencephalic neurons were exposed to 1-10 μM rottlerin for the duration of the experiment. DMSO (0.01%) was used as vehicle control. PKCδ-DN- and Lac Z-expressing N27 cells were only treated with 0.01% DMSO. […] Untreated or vehicle treated cells were used as control samples.
# DA and DOPAC levels in PC12, N27 cells and in brain striatal tissues were determined by high-performance liquid chromatography with electrochemical detection (HPLC-EC); samples were prepared as described previously (Kitazawa et al., 2001). The DA and DOPAC levels were measured as pg/mg protein and expressed as percent of control.
# [2] = test system: tyrosine hydroxylase (TH); test: TH activity (DOPA levels after NSD-1015) in N27 cells; type: cell-based, rat; conditions: 2 mM NSD-1015, rottlerin 3 hr vs DMSO, PKCδ-DN vs LacZ
# Experimental: Plasmid pPKCδ^K376R-V5 encodes the loss of function PKCδ-V5 epitope tagged mutant protein; K376R refers to the mutation of the lysine residue at position 376 to arginine in the catalytic site resulting in inactivation of the kinase. Plasmid pLacZ-V5 encodes the β-galactosidase protein alone with a V5-epitope and is used as a vector control. N27 cells stably expressing PKCδ^K376R-V5 (herein referred to as PKCδ-DN cells) and LacZ alone-expressing cells (LacZ cells) were cultured as described previously (Kitazawa et al., 2005). PKCδ-DN or LacZ expressing N27 cells were identified by immunostaining of the C-terminal V5 epitope on expressed proteins and were differentiated with cAMP analogs (e.g. dibutyral cAMP) prior to experiments. PKCδ-DN and LacZ were also transiently expressed in mouse primary mesencephalic neurons using an AMAXA® Nucleofector™ kit (AMAXA GmbH, Germany). As described above, primary mesencephalic neurons were prepared from the midbrain of 16-18-day-old mice embryos. After digestion with trypsin-EDTA-HBSS, the primary neurons were homogenously resuspended with transfection buffer provided with the kit to a final concentration of 4-5×10^6 neurons/100 μl and mixed with 1 μg plasmid DNA encoding either PKCδ-DN-V5 or LacZ-V5. […] Transfection efficiency was >75% as determined by immunostaining of V5-expression. […]
# [3] = test system: tyrosine hydroxylase (TH); test: TH phosphorylation in N27 cells (Western blot, immunofluorescence); type: cell-based, rat
# Experimental: as §1
# Cell and brain lysates containing equal amounts of protein were loaded in each lane and separated on a 10-12% SDS-PAGE gel as described previously (Kaul et al., 2003). After the separation, proteins were transferred to nitrocellulose membrane, and nonspecific binding sites were blocked by treating with 5% nonfat dry milk powder. The membranes were then treated with primary antibodies directed against PKCδ (rabbit polyclonal or mouse monoclonal, 1:2000 dilution), TH (rabbit polyclonal or mouse monoclonal, 1:1000), phospho TH-ser40 (rabbit polyclonal, 1:1000), phospho TH-ser31 TH (rabbit polyclonal, 1:1000), or PP2A (mouse monoclonal, 1:1000). The primary antibody treatments were followed by treatment with secondary HRP-conjugated anti-rabbit or anti-mouse IgG (1:2000) for 1 hr at RT. Secondary antibody-bound proteins were detected using Amersham's ECL chemiluminescence kit. To confirm equal protein loading, blots were reprobed with a β-actin antibody (1:5000 dilution). Western blot images were captured with a Kodak 2000 MM imaging system and data were analyzed using 1D Kodak imaging analysis software.
# Immunostaining of PKCδ, TH, Ser40 P-TH and Ser31 P-TH was performed in PC12, N27 and primary mesencephalic neurons. Cells were grown on poly-L-Lysine-coated glass cover slips. After treatment, the cells were fixed with 4% paraformaldehyde and processed for immunohistochemical staining. […] Then the coverslips containing stained cells were washed with PBS, mounted on a slide, and viewed under a Nikon inverted fluorescence microscope (Model TE-2000U); images were captured with a SPOT digital camera (Diagnostic Instruments, Sterling Heights, Mich.).
# PP2A = PP2A phosphatase activity in N27 cells (Serine/Threonine phosphatase assay kit); type: cell-based, rat; conditions: rottlerin vs DMSO, PKCδ-DN vs LacZ
# Experimental: To determine PP2A phosphatase activity, we used the Serine/Threonine phosphatase assay kit from Promega. Briefly, N27 cells and substantia nigral tissue from mouse brain were homogenized in lysis buffer (25 mM Tris-HCl, 10 mM β-mercaptoethanol, 2 mM EDTA, protease inhibitor) supplied with the kit. After centrifugation, the supernatants were used for the assay. PP2A activity was determined by measuring the amount of free phosphate generated in a reaction by measuring the absorbance of a molybdate:malachite green: phosphate complex at 600 nm using the Spectramax plate reader (Molecular Devices). The effective range for the detection of phosphate released in this assay is 100-4,000 pmol of phosphate.
molecule,measurement,setting,value
B1,fluorescence of TH-ser40 immunostaining versus Lac-Z expressing neurons,[1],about 2.5 times
same,DA level,N27 cells,4806±373 pg/μg protein
same,DOPAC levels,N27 cells,2783±968.31 pg/μg protein
same,increase in DA level,N27 cells,4 fold
same,increase in DOPAC levels,N27 cells,3 fold
same,TH activity,[2],2539±307.3 pg DOPA/10^6 cells/hr
same,THser31 phosphorylation level,[3]; N27 cells,unaltered
same,level of total TH,[3]; N27 cells,unaltered
same,"fluorescent intensity of TH-ser40 immunostaining, increase versus Lac-Z",[3]; N27 cells stably expressing PKCδ-DN,2.5 fold
same,reduction of PP2A activity,PP2A,56%

# Reference: patent publication US8653023B1, “Dual beneficial effect of dopamine enhancing and neuroprotective actions of PKC delta inhibitors for treatment of Parkinson's disease” (Iowa State University Research Foundation, Inc., priority 2006, dated 2014)
